{"source": "paper PMC10968536", "key": {"[1]": {"system": "HalTzlTCCCAG (synthetic (no organism))", "test": "fluorescence anisotropy", "conditions": "Fluorescence anisotropy: 100 nM FAM-TAR in TB buffer, 25 °C, 20 min, ex 480/em 518 nm, one-site fit; CD: 5 µM TAR with 50 µM nucleopeptide (Methods; abstract …)"}, "[2]": {"system": "HalTzlAGA (synthetic (no organism))", "test": "fluorescence anisotropy", "conditions": "Fluorescence anisotropy: 100 nM FAM-TAR in TB buffer, 25 °C, 20 min, ex 480/em 518 nm, one-site fit; CD: 5 µM TAR with 50 µM nucleopeptide (Methods; abstract …)"}}, "data": [{"sequence": "CCAGAUCUGAGCCUGGGAGCUCUCUGG [5'-FAM(6)-TAR UCU]", "values": [{"measurement": "Kd", "setting": "[1]", "result": 38.3, "unit": "µM"}, {"measurement": "Kd", "setting": "[2]", "result": 256, "unit": "µM"}]}]}
